Test results from US20250262210A1 (TRUSTEES OF COLUMBIA UNIVERSITY IN THE CITY OF NEW YORK, published 2025).

Legend:
Test in all cases: IP/MS, LZTR1 wild type-FLAG, U87
CTDP1 = target: T1, CTDP1 (human, UniProt Q9Y5B0 1-961, limits assumed)
T1 sequence (looked up): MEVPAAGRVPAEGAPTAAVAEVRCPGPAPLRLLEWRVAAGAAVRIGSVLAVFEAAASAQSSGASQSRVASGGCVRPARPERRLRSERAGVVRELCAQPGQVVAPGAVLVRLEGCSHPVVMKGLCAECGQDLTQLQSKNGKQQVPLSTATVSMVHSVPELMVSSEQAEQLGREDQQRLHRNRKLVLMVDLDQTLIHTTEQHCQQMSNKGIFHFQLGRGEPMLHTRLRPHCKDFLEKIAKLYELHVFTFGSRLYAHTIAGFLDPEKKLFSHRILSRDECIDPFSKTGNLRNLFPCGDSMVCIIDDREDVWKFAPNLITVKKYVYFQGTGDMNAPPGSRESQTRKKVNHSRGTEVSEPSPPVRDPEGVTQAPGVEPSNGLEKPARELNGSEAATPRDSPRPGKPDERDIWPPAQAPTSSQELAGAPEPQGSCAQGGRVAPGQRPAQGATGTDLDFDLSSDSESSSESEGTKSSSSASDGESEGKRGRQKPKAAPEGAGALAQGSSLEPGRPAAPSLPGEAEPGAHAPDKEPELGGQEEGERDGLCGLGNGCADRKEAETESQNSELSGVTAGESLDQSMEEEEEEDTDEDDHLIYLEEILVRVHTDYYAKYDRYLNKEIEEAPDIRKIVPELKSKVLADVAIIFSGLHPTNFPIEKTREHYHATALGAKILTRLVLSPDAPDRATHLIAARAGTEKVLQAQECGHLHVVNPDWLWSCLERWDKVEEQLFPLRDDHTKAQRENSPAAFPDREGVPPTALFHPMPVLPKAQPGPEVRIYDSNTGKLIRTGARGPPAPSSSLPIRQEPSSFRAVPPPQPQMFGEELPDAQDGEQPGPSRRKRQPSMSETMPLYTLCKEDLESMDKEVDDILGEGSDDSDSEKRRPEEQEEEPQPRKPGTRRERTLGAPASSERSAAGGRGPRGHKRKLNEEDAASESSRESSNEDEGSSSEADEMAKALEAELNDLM
In short: (§1)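 Read-out: spectral counts from LC-MS/MS (Orbitrap Fusion) after MaxQuant identification. Variable modifications were Met oxidation, protein N-terminal acetylation and N/Q deamidation.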

STK11IP = target: T2, STK11IP (human, UniProt Q8N1F8 1-1088)
T2 sequence (looked up): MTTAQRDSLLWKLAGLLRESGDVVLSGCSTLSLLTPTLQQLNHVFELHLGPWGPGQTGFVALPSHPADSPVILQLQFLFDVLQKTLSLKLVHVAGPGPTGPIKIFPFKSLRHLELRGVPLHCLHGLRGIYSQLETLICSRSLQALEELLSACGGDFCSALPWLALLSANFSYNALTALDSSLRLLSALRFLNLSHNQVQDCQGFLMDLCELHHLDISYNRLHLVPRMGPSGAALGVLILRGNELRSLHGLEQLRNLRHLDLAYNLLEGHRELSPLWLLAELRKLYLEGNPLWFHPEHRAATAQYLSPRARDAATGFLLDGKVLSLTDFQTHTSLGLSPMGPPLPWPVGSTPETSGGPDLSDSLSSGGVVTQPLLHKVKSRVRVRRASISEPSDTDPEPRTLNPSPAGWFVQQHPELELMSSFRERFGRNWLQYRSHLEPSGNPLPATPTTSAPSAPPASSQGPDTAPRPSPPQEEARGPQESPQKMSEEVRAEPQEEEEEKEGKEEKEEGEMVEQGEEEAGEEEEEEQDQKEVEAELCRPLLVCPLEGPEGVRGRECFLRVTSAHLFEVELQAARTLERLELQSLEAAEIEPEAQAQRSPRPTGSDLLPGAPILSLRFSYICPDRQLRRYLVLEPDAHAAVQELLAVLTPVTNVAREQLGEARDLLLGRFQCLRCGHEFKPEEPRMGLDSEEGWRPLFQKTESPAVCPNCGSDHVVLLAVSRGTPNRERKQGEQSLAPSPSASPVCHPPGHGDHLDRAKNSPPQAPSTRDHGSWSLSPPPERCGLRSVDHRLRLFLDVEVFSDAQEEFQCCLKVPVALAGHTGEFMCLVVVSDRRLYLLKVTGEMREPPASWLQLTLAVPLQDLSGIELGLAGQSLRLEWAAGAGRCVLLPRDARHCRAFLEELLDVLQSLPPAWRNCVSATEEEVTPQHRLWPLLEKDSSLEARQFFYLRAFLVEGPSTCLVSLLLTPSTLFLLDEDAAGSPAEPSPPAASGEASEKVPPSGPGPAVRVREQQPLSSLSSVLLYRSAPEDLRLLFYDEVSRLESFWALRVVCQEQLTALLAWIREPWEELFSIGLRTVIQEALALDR
In short: as §1

TTI1 = TTI1 (human, UniProt O43156 1-1089)
In short: as §1

ARFGEF1 = ARFGEF1 (human, UniProt Q9Y6D6 1-1849)
In short: as §1

Measured: binding result

Chain of ARFGEF1 (Q9Y6D6 whole entry): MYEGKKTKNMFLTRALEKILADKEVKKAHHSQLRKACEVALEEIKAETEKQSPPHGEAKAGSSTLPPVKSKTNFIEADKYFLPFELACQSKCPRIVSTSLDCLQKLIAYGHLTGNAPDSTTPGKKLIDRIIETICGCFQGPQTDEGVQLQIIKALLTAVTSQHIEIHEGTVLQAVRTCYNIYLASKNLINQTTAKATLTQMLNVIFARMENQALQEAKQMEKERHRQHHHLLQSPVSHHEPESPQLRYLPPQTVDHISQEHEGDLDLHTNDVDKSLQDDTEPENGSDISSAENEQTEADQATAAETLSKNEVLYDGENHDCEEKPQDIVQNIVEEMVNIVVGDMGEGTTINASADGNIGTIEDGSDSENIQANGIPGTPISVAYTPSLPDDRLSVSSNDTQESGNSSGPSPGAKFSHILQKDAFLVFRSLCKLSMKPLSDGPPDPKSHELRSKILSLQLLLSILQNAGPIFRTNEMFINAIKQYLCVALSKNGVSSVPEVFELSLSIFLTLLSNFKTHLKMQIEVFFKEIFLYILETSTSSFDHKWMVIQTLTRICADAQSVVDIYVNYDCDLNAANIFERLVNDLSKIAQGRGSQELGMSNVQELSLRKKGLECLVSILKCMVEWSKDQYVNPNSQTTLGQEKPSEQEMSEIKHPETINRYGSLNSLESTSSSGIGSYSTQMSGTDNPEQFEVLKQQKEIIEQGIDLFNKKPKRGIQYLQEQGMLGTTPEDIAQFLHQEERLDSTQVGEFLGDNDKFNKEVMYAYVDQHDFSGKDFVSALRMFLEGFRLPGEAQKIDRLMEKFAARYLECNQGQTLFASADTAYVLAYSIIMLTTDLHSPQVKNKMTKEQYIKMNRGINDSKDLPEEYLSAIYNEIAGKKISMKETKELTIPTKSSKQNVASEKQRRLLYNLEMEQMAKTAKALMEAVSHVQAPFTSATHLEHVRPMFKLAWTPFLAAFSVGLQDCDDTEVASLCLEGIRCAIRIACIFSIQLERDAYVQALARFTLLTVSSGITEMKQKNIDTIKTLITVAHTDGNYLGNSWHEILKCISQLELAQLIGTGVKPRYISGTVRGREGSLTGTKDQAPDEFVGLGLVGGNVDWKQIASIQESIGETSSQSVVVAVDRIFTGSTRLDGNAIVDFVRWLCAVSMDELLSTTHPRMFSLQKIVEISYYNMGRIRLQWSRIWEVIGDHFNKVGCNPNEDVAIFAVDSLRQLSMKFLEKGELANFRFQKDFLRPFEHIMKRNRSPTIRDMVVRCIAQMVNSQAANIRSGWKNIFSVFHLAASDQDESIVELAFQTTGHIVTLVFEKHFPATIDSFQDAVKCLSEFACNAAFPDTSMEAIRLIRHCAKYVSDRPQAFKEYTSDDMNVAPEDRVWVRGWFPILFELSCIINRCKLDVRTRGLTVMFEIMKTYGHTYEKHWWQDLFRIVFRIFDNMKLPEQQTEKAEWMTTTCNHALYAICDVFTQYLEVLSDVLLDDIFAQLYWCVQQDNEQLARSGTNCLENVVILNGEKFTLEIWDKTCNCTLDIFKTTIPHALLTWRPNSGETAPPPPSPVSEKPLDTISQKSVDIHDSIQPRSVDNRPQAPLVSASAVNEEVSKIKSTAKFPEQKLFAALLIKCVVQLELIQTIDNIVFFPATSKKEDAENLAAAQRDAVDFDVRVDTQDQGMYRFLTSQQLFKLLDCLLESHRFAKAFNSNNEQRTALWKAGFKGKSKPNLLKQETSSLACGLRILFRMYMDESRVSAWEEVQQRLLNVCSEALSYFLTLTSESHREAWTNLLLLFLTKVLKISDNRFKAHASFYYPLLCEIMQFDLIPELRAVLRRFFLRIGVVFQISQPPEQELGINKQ
Chain of TTI1 (O43156 whole entry): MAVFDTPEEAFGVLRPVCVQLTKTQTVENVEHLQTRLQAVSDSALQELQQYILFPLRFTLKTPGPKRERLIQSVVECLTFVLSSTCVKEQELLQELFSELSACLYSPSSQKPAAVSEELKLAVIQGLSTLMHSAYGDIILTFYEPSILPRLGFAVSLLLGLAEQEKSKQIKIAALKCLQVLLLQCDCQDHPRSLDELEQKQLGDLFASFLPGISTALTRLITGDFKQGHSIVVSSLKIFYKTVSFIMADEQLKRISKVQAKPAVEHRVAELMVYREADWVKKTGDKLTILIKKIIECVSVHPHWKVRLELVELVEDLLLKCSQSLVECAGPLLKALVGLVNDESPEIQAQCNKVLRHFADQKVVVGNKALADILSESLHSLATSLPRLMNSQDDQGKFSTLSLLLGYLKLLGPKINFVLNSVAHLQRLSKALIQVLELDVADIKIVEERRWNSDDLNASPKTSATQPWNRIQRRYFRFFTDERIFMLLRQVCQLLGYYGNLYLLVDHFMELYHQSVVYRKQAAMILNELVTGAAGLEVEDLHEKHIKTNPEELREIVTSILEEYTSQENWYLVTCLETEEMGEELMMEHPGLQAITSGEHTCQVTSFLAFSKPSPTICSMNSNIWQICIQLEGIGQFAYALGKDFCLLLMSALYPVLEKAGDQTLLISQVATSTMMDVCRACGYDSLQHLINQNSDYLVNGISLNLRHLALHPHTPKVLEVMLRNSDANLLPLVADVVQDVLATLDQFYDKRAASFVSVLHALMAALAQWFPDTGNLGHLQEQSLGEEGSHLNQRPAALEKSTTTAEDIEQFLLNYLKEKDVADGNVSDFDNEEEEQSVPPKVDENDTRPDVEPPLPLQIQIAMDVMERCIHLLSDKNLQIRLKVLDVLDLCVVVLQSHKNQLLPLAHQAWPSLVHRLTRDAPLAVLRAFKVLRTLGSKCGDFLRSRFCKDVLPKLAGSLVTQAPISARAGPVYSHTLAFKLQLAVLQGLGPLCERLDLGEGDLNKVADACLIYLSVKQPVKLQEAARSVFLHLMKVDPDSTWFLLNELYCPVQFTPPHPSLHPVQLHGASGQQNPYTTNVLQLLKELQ

B1: LZTR1-FLAG (other, human, UniProt Q8N653 1-840, looked up)
chain: MAGPGSTGGQIGAAALAGGARSKVAPSVDFDHSCSDSVEYLTLNFGPFETVHRWRRLPPCDEFVGARRSKHTVVAYKDAIYVFGGDNGKTMLNDLLRFDVKDCSWCRAFTTGTPPAPRYHHSAVVYGSSMFVFGGYTGDIYSNSNLKNKNDLFEYKFATGQWTEWKIEGRLPVARSAHGATVYSDKLWIFAGYDGNARLNDMWTIGLQDRELTCWEEVAQSGEIPPSCCNFPVAVCRDKMFVFSGQSGAKITNNLFQFEFKDKTWTRIPTEHLLRGSPPPPQRRYGHTMVAFDRHLYVFGGAADNTLPNELHCYDVDFQTWEVVQPSSDSEVGGAEVPERACASEEVPTLTYEERVGFKKSRDVFGLDFGTTSAKQPTQPASELPSGRLFHAAAVISDAMYIFGGTVDNNIRSGEMYRFQFSCYPKCTLHEDYGRLWESRQFCDVEFVLGEKEECVQGHVAIVTARSRWLRRKITQARERLAQKLEQEAAPVPREAPGVAAGGARPPLLHVAIREAEARPFEVLMQFLYTDKIKYPRKGHVEDVLLIMDVYKLALSFQLCRLEQLCRQYIEASVDLQNVLVVCESAARLQLSQLKEHCLNFVVKESHFNQVIMMKEFERLSSPLIVEIVRRKQQPPPRTPLDQPVDIGTSLIQDMKAYLEGAGAEFCDITLLLDGHPRPAHKAILAARSSYFEAMFRSFMPEDGQVNISIGEMVPSRQAFESMLRYIYYGEVNMPPEDSLYLFAAPYYYGFYNNRLQAYCKQNLEMNVTVQNVLQILEAADKTQALDMKRHCLHIIVHQFTKVSKLPTLRSLSQQLLLDIIDSLASHISDKQCAELGADI
notes: Expressed in HEK 293T, HeLa or U87 cells; used as cell lysate; also called LZTR1 wild type-FLAG; LZTR1 WT; not shown: FLAG tag at the C-terminus
binds: all assays above
